Source: PMC48140 (BMC Cell Biology, 2001)

Molecular target: the molecule itself
Test: SDS-PAGE with immunoblot

B1: MP20, lens fiber cell membrane protein (natural protein, ovine, UniProt A0ACI6P5E9 1-173, looked up)
chain: MYSFMGGGLFCAWVGTILLVVATATDHWMQYRLSGAFAHQGLWRYCLGTKCYLQTESIAYWNATRAFMILSSLCATSGIIMGIVAFAQQPTFTRLSRPFSAGIMFFASTFFVLLALAIYTGVTVSFLGRRFGDWRFSWSYILGWVALLMTFFAGIFYMCAYRMHECRRLSTPR
- stoichiometry N: 2
